Results as given in publication PMC13090976 (Cell Stress & Chaperones, 2026).

B1: human CHIP-TPR (residues 21-154) [human] / biotin-… [modified: biotin, printed before the first residue (biotin-…); biotin, printed before the first residue (biotin-…)] [human] (parent)
chain 1: EKSPSAQELKEQGNRLFVGRKYPEAAACYGRAITRNPLVAVYYTNRALCYLKMQQHEQALADCRRALELDGQSVKAHFFLGQCQLEMESYDEAIANLQRAYSLAKEQRLNFGDDIPSALRIAKKKRWNSIEERR
chain 2: GSGSGPTIEEVD

Variants of: B1
Assay: biolayer interferometry
Settings: with biotin-… [modified: biotin, read off a plot

Variant	koff	kon
chain 1 G112N	0.0031 s⁻¹	5800 M⁻¹ s⁻¹
